Test results as given in the supplement of paper PMC12636428.

Tested on: Saccharomyces cerevisiae
Experiment: transcriptional activation domain activity (GFP:mCherry ratio, weighted mean of sorted bins, harmonized to initial dataset scale) (arbitrary fluorescence ratio units); higher = stronger transcriptional activation
Details: beta-estradiol 1 µM; induction time 4 h
Summary of the method: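 After a 1:5 dilution into SC with 1 uM beta-estradiol and 4 hours at 30 °C, yeast diploids carrying a GFP reporter and URA3-integrated barcoded tiles were sorted into 8 bins by GFP:mCherry ratio. The tiles were fused to an estradiol-inducible synthetic transcription factor. Barcodes were sequenced, tiles below 50 reads were discarded, and activation activity was taken as the read-weighted mean of bin median fluorescence, averaged across barcodes and linearly mapped onto the initial dataset scale.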

Sequence	transcriptional activation domain activity
SNGTNNSGNMNTNADYESFFNTGTNNSNSNQNPYFLSSRNNSLKFNPEDFDFQ	59100
SNGTSLFVTCWVALNVFFHFYRLPLRWDFFFVFADRAGLIFIVNLPLLYLLAA	59500
SNHGLIYSKPLAWEWNCIIDSIENSLVGYCMEQIFVVHVSRLLLLQWSITQIF	56000
SNHNNDNDNSNNGDGNNNNTISELVCFDESIADLYPVEIDSPYLITLAYLDKL	71900
SNKRNKDENRGRSRTRSASRGRSRSASVFSDARSRSRARSRSRAATMAKAGAA	36300
SNKRPSSGPARGGRNNGGRGNNQNANNNRGGRRGRGGAKESGAPNGQKKAGAP	9410
SNPKELFFIRILLDLSWIDMRVAICSLRPILGEEPRKFREMLLVLPTLCSEIY	66100
SNPLTSQANRMSSYDKKTNVLGFDDGTFDNKVFNRTNFEEKAPFDIPLDEFFT	119000
SNRGSGGGGRATGAHSRRGRGSGDRGGRSSARSRSKSPGAEVAEAGEPAPAVP	17900
SNRLFVGLPLCRDPEYLKFSVNHTMRVFMSGRMISVLTPVLRPILAPLLCSRK	49600
SNTLSLALYTLIEHIGMQRLEYANNSLVMLLKLIHNIILSLKNLRLFFNFFVT	41900
SNVFPTQLLARHQKEIKRFKRMLAIVRWFEVCFALLRIKYLMKLFWFSVEFCN	50000
SNYCWQMSVLPRARISIFRAEVKERCVVTVALLFSVYDPIAIVDLVKKLETDF	27500
SNYSNLATRAPSGPPQFLVNNVIQHWGGVDGWIKWILKIRKAYILRRDVFLAT	56800
SPAPSFRGKSKAEEERERAVLDITDRVSKLLRKTQLQVRVIVECIHCKSPKHL	33300
SPDDFDQTLPLDLSDENITEVAYLPENQHSVLSSTGISNEHTKLFLILNEIIS	63000
SPDQDPHRPKVESGGEEQEQLGPPKKKRRRQALNCTECKRRKIRCDRSQPCGP	18300
SPENVSLAAVTGVYGLGLNPWPTFDYNMLGLDPLVTPFFTTFNFFLGTLFTLP	74100
SPFASAGQTGQSPFGGLNKASSPAFAGTGSGSTFGQASTLGGAFGKPAEPAAT	32400
SPKKAAAPKKPAAKKATEAKKASVKPKAAKETKEKKEAKPKAAKAAKPAAAAP	28100
SPKMYESFLRIDLRNLEVRVLGMGATTSDVRLANIVVQYLVKGWLPQTAYATL	71200
SPLNSFDRSFYPIGCTNLSNDIPGYSFLNDAMSEIHTFGDFNGELDSTFLEFS	131000
SPLPLLICSLPSLVNPLPLLPSTLALLPPPFILYYVLQYHVILFVFLVVFCFS	33200
SPLPPPSPFFPLQPLSLFHLSPLFSPVSLHFPCFSPFPPPLPPFFLPLLPLLS	60500
SPMGSGSDEEEEERRRKRRKEKKRSKKSKRERSGSLSGSGSEGGGGKRKRHQD	36000

Sequence	transcriptional activation domain activity
SPQRSTSSTSSKAAAAPKAAAQPKQQQQKPAAPSKPAAAAAAPKTAPKPAAAS	26000
SPRPSYILNAYLFISLLFDIVVLRTVWIALPSFQPVRIVLTSSFALKTIILFL	54000
SPSPSTTATPPASPSPPSRTKSTPRASSRSACAPSVTTPAGRPRSCARSGPRC	38000
SPSRNAERPSPAAPAAMERGPDGRPRLKLAPRSAPRTETPSPAPVAPPAPVHV	29400
SPSRRRDRDYDYSRYRRRDDSRSRSPRRRADPKDQQEKEKEKVKVKPSRAAAT	16200
SPSSGLNINFFYHEVLMVLSLFNSMTRPDVMRWYAKTRFYHIVNLTAWQIYPC	57400
SPSSQTTSSTTVVLVFGSDEKRVKEVGDGLKSKLAVKGGGKGTRWSGKYTGVW	32000
SPTLSHCTDYRTPALAYNILITCSLFLLFRPKPLILFWCLVCIGFWHVALFSQ	52500
SPTRAYVGANTNSKNASFNDADLLSSSYWIKAYNDHLFSVSESDETSPMNSEL	38800
SPTSAFGTASAPAATSAFGAPATGAAGGGGGGFSAFAGKPAAFGGAAPAPAPA	46100
SPVYLICMGTVLLYVGVIIVMLIERIAYFRPGDGLCVIGLKPVASLSLLCFDL	37200
SPWSLPHLESKFVEDGLYYAIQVISYISKINSKASYYYYQIRMLLVASRFIMQ	46000
SPWVSWADTHSNFSRVVQVPSIYWRADPYSTASAETLRWATVVCVLLFFAYFR	42700
SQEESIDNENQKVKEEEIEISVNNIKTEVEKEELKKDNKKGKKVVNKKEIKEE	39900
SQKKHCELCKTAFRFTKLYSPDMPKHLPFHIFVHHMTRYLIRNFLVWLRAALV	61500
SQKKHCELCKTAFRFTKLYSPDMPKHLPFHIFVHHMTRYLLRNFLVWLRAALV	43000
SQKKHCELCKTPFRFTKLYSPSMPKTLPVYVFLSHVAKYLLRNLLVEARAMLV	42900
SQKNGTSAANALVYGGFSHTVTQHTIKDVSIDGTWLEEEIDGFKSDTLGFHVD	72800
SQLPSLRLFNSYLALWAIGLISIMLFLLIATWHYARVDWQMQVLAVHHVLNLS	34800
SQLQDPIAKEHVAFGLRHMYKTLQNEVKSYYNLMQSLHVRLPGLEFLTLWMAF	50100
SQLYFNVYPNELDERFSLFDPTYSLQWLFEHLFTTRVVELTRMLCFVMCIFVL	37700
SQNSNDTSSKGIVDPFVEQNNDITTALLNNELFQGPSLSDEVTDWFGASEDIG	91000
SQPSDTIRKRTAGDDGALDQTENTSISPKKRRTEDHTKGEEDEGERGVGNSGT	22200
SQQRLEVSAMYLFWHMDTVRGLCVRMPGTVMTRAHFFRLLTYYFAMLFLSAAL	57000
SQSRSRSASRSRSPPRKREKRDSSDREDSRDRRRNKSESRSRSRSPAKSAGSA	16300

Sequence	transcriptional activation domain activity
SQVAVSPGAVIEVNEEDAGEEQEQQQPARKRQRHRSKRQKLDAEQSAGQGGVV	31700
SQVCLDSFGLLFAVVAYPCTSLLLLIFILASFLTFQAIFTLFPLFRLLAFFCL	41700
SQVIKILTLLFFFLNLLFFVLICAATVARYCMFPQLWPIMLNHPSQSLFIGAF	60600
SQVNKGKVQVWVMYFSFSFFFLFFIHLVCWFLLFCFFFFFVPFIIPLFFFFFL	32300
SQWRGVVALKLQIVKTLMKIRMVFPGLMTGLSLEYFSVIWTELNNALPIYLNF	48000
SRAKVCGWADVFMVIAMHCLLGWSVTMTLYALRGGTRHIWDLEPLGVDNLIKA	35200
SRDRDRKEKTDKTDKDRERDREKERRGEREREREKERERERAERHRERDRERE	32800
SREFLWVGFGVRCMVLAKFQVIKGLKYIRTIIAQKNQSAGLAIELRILMVVWV	43800
SREGKGGGAGRGKGGEQGGGMGEGKQGGGGGEAERGSREGKQRGEAGGRGKEE	44600
SREGPAQSSCSSRVTEILKSSRDLKVGDVLVLGKDQRVPADVVLLKSFATEAS	18600
SREQPPSGQSRETLQKRVLHVRSVGRVTKGGKIRSASAIVVVGNGNGIGGYGE	38900
SRGICVYPFLPFAFFLGVFFSLMEFVLLGMMMVLYLYMRTVTCMFDISICLLL	48500
SRHGREASEERARRKRRERQRDNDGGNRSRRKHTSPSSDDADRLTRKRKSRHE	11000
SRIRAKRIYTKLNLFFRSAFLSYTDFKQTIIVLVSLLKLSLNLWDIVKLMCPQ	47400
SRITSIGVWYLLIQMIWYILFGILYIWFFCQTWESFTVLLVVDYSLRIILCLM	58100
SRKESRKEKSESKPVKAGKKEGKEKGKGKEGKEGKADGEKAAKPKKEKKEKKE	17700
SRKGESGREDSGGRDKESRKRSRRDKTPVADERRRDGTRAAEERDRKRRGDHR	49100
SRLCLVSVGECLLLLSLVWGLLLLISLYLVLFFLHCVCMSGLFLCDLFELFVT	64800
SRLDAIEEEEEDLAAKNEGSTSNIEVDEIDIKSRDLKVGDIVKLGKNQRVPAD	39600
SRLFDLQLNICLSFQVYWFRNLVDGFPLDIPPLHIASFFGLVEPLTALLKSLG	33100
SRLHARIEYEESSEQFVLAVLGRNGAWVDGVWSGSGSRVPLSSRSQIQIASRV	52800
SRLLHLLLVTLGLLVVLLYSFFPSPDVFVLSPLRSPLFLLFSPSFFFCLFCLF	75400
SRLRKTGTPTSSQHSSTAFSGYIDDPFNLNEILPLPASDFKLNTVTNLNEIDF	106000
SRLTHVLLCYRQSLLVTVYSHLLLLDQSSQVWWRWMSIFFTLIMWSIELLISS	57600
